Reference: patent publication US20230242902A1, “A HIGHLY ERROR-PRONE […] R[…] FOR TARGETED CONTINUOUS EVOLUTION IN VIVO” (The Regents of the University of California, priority 2017, published 2023)
Numbering of substitutions follows the chain as printed. Names and notes keep the numbering of the source.

B1: S370R: TP-DNAP2 variant (protein, listed as Kluyveromyces lactis)
chain: MNDELAFLNSQIDDYSDDIEFLRTEVFRINRYSKSIYSLMKNSSKEAIKETIEFNKYGQEIHSKIKEKEISLIEAIKLMEKKYKYLRSLNKTKDKSKKKKIHTKDIETLKTIYKTKADFDIRNFKNAETFTYENYSLLIPSEKELIDLIPEIEEDYSYYFYVSLTITGPTIFGGVTRKVPIIDTYGDINKDFYNKIKENITKVLDRVPFYEEKESEIICKKVLITLTVNKWESIDKWYKNVKSKSKKFKDFTLFLASDTSKNCVQQCVEYLGGKWNTNYSLEKMIPQQKIVTYIPLLMDIQYVQSMEDLISDFDEPNTDCKNIARLLKWNGHMGVITKIDKDVKINRIQRKRIIDVENKEVKEVFFDIERFSDETKHQIPYLICWSYLGELYYRTGKNCIKEFVEEILSYNVDIILYAWYGSGYDYQHVLPYMKSKCIKDKYIIKNNMITYGELYYENAIIYLKDPYLFILTSLDKASKAFNVINKGEFPHSIIHSWEDLNKILPNWVKIQKRMIEYKDDNKLNIYYKNIEIFENDRNYNTILENAIEYCKVDVLAMEKVWIKFKKLLEKNLNITVSVKTFTLSQLSMKIMESKLPKYVKLYVPTLEEYSKIRNAIYGGRVISKNGIYEENIVYADVVSLYPSAMKLLKHSYGKPKLVDYIDFEKHGIYRVTLLNKHDQEPKNYLNFVPRRINRKLTWEWFKIHEGWYHTYDLIIAKSEGFDIYCHEGFEYPEKDYIFNDFIDTLYSMKETHTACSCEEQPCPIRMVAKIALNGGGYGKFVQKPIDKEIYIVKRDVVAGECDKLQENENGEICIGKRLVKRPLFYNLDSENYDKMIIEKEDEPIYSTQCGISILSASRYRLYKLCKQFENIDIIYSDTDSIFVKQKSVDWELFKSKCGSELGQLDSTIDDTKNAIISKMYIGGAKMYAFEYLNNKNKLITKLHCKGVPNYMLSLNQFKYLMESPDNTIAYKFEIIRRKLVNVITKDLIKDIKQT
B2: Y424E: TP-DNAP2 variant (protein, listed as Kluyveromyces lactis)
chain: B1 chain with R370S, Y424E
B3: S370K: TP-DNAP2 variant (protein, listed as Kluyveromyces lactis)
chain: B1 chain with R370K
B4: S370E: TP-DNAP2 variant (protein, listed as Kluyveromyces lactis)
chain: B1 chain with R370E
B5: S370L: TP-DNAP2 variant (protein, listed as Kluyveromyces lactis)
chain: B1 chain with R370L
B6: L474D: TP-DNAP2 variant (protein)
chain: MDYKDKALNDLRNVYADFDSLPLDFRQILIKDRATLLQKEDVEKKILERQEDAKKYAEYLKQSEIPERISLPNIKRHKGVSISFEETSEDMVLEPRPFIFDGLNIRCFRRETIFSLKNKILNMVKESSSFKNVSRQSVSFMYFKIFNKGKVIASTKSVNIYEDKIDERLEDLCNNFDDVLKKIIDVTYGYESLFVSETYSYVIFYAKSIYFPQPRCVNNWGNNIPNILTFDSFKLFTANKNNVSCIKQCSRFLWQKDFNTLEEMIEYKNGNICIVTPQLHINDVRDIKSFNDIRLYSESPIKTFSVIDNTITYLFYFKEHLGVIFNITKSRHDRRVTKFSPLSKFSDVKNITVCFDIESYFDPEKESNQVNIPFICCASIIYNKVIGNIVDFEGRDCVAQMIEYVVDICGELNISSVELIAHNGGGYDFHYILSSMYNPAAIKNILIRNNSFISFNFAHDGVKFSVKDSYSFLDCSLANASKAFLNEETFKKTDFPHHDLKTADDLYKVYKEWSSVNTEINHVVEKEKLLITSEHIVNFTKNDKSKTLIEWSKDYCRNDVLVLSKVWLEFKNAVEDIFNCELVDQTMTLAGLSYKLFQANMPFDVELRHPNKEDYFNMREALIGGRCISVNGIYKDVLCLDVKSLYPASMAFYDQPYGSFKRVSSRPKDELGIYYVRVTPNRNNKSNFFPIRSHNKITYNNFEESTYIAWYTNVDIDIGLSEGHNIEYIPFDSYGNIGYSWSKKGKIFEKYIKDVLYKLKIKYEKQNNKVKRNVIKIIMNSLWGKFAQKWVNFEYFIKSEDDIDFESEEAYKIWDTDFMLIKKIKESTYSSKPIQNGVFTLSWARYHMKSIWDAGAKEGAECIYSDTDSIFVHKEHFKKNAKFMLNGLKVPIIGSEVGQLELECEFDKLLCAGKKQYMGFYTYFQDGKPCIKEKKRFKGIPSNYIIPELYAHLLSGADKEAKIQFLKFRREWGSVKGYIENKTVKAT
B7: L474A: TP-DNAP2 variant (protein)
chain: B6 chain with D474A
B8: L474V: TP-DNAP2 variant (protein)
chain: B6 chain with D474V

Tested on: p2-encoded leu2*
Assay: p2 leu2* fluctuation tests in GA-Y021 (p2 mutation rate reporter strain)
Type: cell-based, S. cerevisiae
Conditions: for Per-base substitution rate pf p2: TP-DNAP2 variant in trans, wt TP-DNAP2 in cis, 36 replicates, (95% C.I.); for Fold increase: p2 substitution rate over no variant in trans
Description: For fluctuation tests used to measure p2 mutation rates, leu2* served as a marker for detecting mutational events. leu2* is a disabled version of LEU2, where Q180 is replaced with a TAA stop codon. Q180 is a permissive site where mutation to any other codon other than TAG and TGA results in functional reversion to LEU2. These mutational events can be detected by plating scores of parallel cultures on medium lacking leucine and counting the number distribution of functional LEU2 mutants.
For TP-DNAP2 library screening, each library member was subjected to small-scale leu2* fluctuation tests with six replicates. 190 library members from each yeast library transformation were arrayed and inoculated into liquid SC medium lacking uracil and histidine, and passaged three times at 1:10,000 dilutions. mKate2 fluorescence was measured at every passage on a microplate reader (TECAN Infinite® 200 PRO, settings: λex=588, λem=633) to track p2 copy number stabilization. To perform fluctuation tests, each library member was diluted 1:10,000 into liquid SC medium buffered to pH 5.8 and lacking uracil, histidine, tryptophan, and dilutions were split into six 100 μL replicates. Cultures were grown for 48 hours at 30° C. to reach saturation. Saturated cultures were washed with 200 μL 0.9% NaCl to remove residual leucine and resuspended in 35 μL of 0.9% NaCl. 10 μL of this resuspension was spot plated onto solid SC medium buffered to pH 5.8 and lacking uracil, histidine, tryptophan and leucine. Spot plates were allowed to dry and incubated at 30° C. Colonies were counted after 5 days. Colony counts were used to calculate the expected number of LEU2 functional mutants (m), using the p0 method (Foster, 2006, Methods Enzymol, 409:195-213).
To precisely measure p1 and p2 per-base substitution mutation rates, several modifications were made to the small-scale protocol. First, 36 replicates were performed for reconfirmation of candidate TP-DNAP2 mutators, and 48 replicates for genomic and mutual orthogonality experiments. Titers were also determined for each strain after spot plating by pooling the residual volume from 4 replicates and plating dilutions on YPD. The expected number of LEU2 functional mutants (m) was determined by the Ma-Sandri-Sarkar maximum likelihood estimator (as calculated by the FALCOR tool and corrected for partial plating (Foster, 2006, Methods Enzymol, 409:195-213; Sarkar et al., 1992, Genetica, 85:173-179; Hall et al., 2009, Bioinformatics, 25:1564-1565). The mean mKate2 fluorescence was determined from 50,000 event counts on Attune™ NxT Flow Cytometer and converted to p2 copy number by using a calibration curve. To determine per-base substitution rates, the corrected m was normalized to the average cell titer, the p2 copy number, and the target size for functional leu2* reversion (2.33 bp). 95% confidence intervals were similarly scaled.
To identify error-prone TP-DNAP2s, a small library of TP-DNAP2s diversified at locations hypothesized to be responsible for DNAP fidelity was screened. […] Four distinct site-saturation mutagenesis libraries were generated, each diversifying S370, Y424, L474, or F882 in TP-DNAP2 encoded on pGA55-reTP-DNAP2. Due to unsuccessful attempts to generate a strain with a full deletion of p2-encoded TP-DNAP2 and simultaneous integration of mKate, URA3, and leu2*, each library was transformed into GA-Y021 for convenient screening. However, since GA-Y021 still encodes wt TP-DNAP2 on p2-delORF1-mUL*, p2 mutation rates measured in this format are the result of in tandem replication of p2 by wt TP-DNAP2 and each TP-DNAP2 variant encoded in trans. 6-fold coverage of each library was maintained by picking 190 yeast colonies and passaging under selection for URA3 to stabilize the copy number of p2-delORF1-mUL* in the presence of the newly introduced TP-DNAP2 variants. […]

Molecule	Per-base substitution rate pf p2	Fold increase
B1	31.9 (22.4-42.5) ×10^−10	5.3
B2	73.3 (55.2-93.3) ×10^−10	12.3
B3	26.2 (18.0-35.4) ×10^−10	4.4
B4	27.9 (19.7-37.2) ×10^−10	4.7
B5	14.8 (9.32-21.1) ×10^−10	2.5
B6	12.2 (7.33-17.9) ×10^−10	2.0
B7	8.37 (4.80-12.6) ×10^−10	1.4
B8	5.76 (2.88-9.33) ×10^−10	1.0
